# Reference: publication PMC10850970, “Characterization of N-glycosylation and its functional role in SIDT1-Mediated RNA uptake”
# T1: SIDT1 ECD (Homo sapiens, UniProt Q9NXL6 23-310)
# T1 sequence: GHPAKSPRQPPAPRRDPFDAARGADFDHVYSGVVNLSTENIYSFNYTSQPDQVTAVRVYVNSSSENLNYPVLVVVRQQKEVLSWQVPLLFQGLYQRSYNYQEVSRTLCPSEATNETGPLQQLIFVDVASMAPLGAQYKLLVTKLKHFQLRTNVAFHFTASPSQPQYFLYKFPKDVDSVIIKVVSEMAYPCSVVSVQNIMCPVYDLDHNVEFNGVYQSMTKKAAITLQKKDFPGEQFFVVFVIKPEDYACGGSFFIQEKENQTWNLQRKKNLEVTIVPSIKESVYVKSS
# T2: SIDT1 ECD-Fc (Homo sapiens, UniProt Q9NXL6 23-310)
# T2 sequence: T1 sequence
# B1: SIDT1: PNGase F (protein)
# parent chain: MRGCLRLALLCALPWLLLAASPGHPAKSPRQPPAPRRDPFDAARGADFDHVYSGVVNLSTENIYSFNYTSQPDQVTAVRVYVNSSSENLNYPVLVVVRQQKEVLSWQVPLLFQGLYQRSYNYQEVSRTLCPSEATNETGPLQQLIFVDVASMAPLGAQYKLLVTKLKHFQLRTNVAFHFTASPSQPQYFLYKFPKDVDSVIIKVVSEMAYPCSVVSVQNIMCPVYDLDHNVEFNGVYQSMTKKAAITLQKKDFPGEQFFVVFVIKPEDYACGGSFFIQEKENQTWNLQRKKNLEVTIVPSIKESVYVKSSLFSVFIFLSFYLGCLLVGFVHYLRFQRKSIDGSFGSNDGSGNMVASHPIAASTPEGSNYGTIDESSSSPGRQMSSSDGGPPGQSDTDSSVEESDFDTMPDIESDKNIIRTKMFLYLSDLSRKDRRIVSKKYKIYFWNIITIAVFYALPVIQLVITYQTVVNVTGNQDICYYNFLCAHPLGVLSAFNNILSNLGHVLLGFLFLLIVLRRDILHRRALEAKDIFAVEYGIPKHFGLFYAMGIALMMEGVLSACYHVCPNYSNFQFDTSFMYMIAGLCMLKLYQTRHPDINASAYSAYASFAVVIMVTVLGVVFGKNDVWFWVIFSAIHVLASLALSTQIYYMGRFKIDLGIFRRAAMVFYTDCIQQCSRPLYMDRMVLLVVGNLVNWSFALFGLIYRPRDFASYMLGIFICNLLLYLAFYIIMKLRSSEKVLPVPLFCIVATAVMWAAALYFFFQNLSSWEGTPAESREKNRECILLDFFDDHDIWHFLSATALFFSFLVLLTLDDDLDVVRRDQIPVF
# B2: SIDT1: N57Q (protein)
# parent chain: B1 parent chain
# B3: SIDT1: N282Q (protein)
# parent chain: B1 parent chain
# B4: SIDT1: kifunensine (protein)
# parent chain: B1 parent chain
# B5: SIDT1: N136Q (protein)
# parent chain: B1 parent chain
# B6: SIDT1: kifunensine, pH 3.5 (protein)
# parent chain: B1 parent chain
# B7: SIDT1: N83Q (protein)
# parent chain: B1 parent chain
# B8: SIDT1: kifunensine, pH 5.5 (protein)
# parent chain: B1 parent chain
# B9: SIDT1: kifunensine, pH 7.5 (protein)
# parent chain: B1 parent chain
# B10: SIDT1: SIDT1ECD mutant (all N to Q) (protein)
# parent chain: B1 parent chain
# B11: SIDT1: N67Q (protein)
# parent chain: B1 parent chain
# Assays:
# [1] = Amplex Red phospholipase assay; details: glycan lost; control: untreated full-length SIDT1
# [2] = precipitation after deglycosylation; details: glycan lost; control: untreated purified SIDT1ECD
# [3] = Western blot of cells and medium, HEK293F; details: glycan lost; control: WT SIDT1ECD
# [4] = 0-4 h incubation at pH 3.5, SDS-PAGE; details: glycan changed form; control: SIDT1ECD expressed without kifunensine
# [5] = differential scanning fluorometry (Tycho); details: glycan changed form; control: SIDT1ECD expressed without kifunensine, same pH
# SIDT1 ECD = biological target: T1, SIDT1 ECD; assay: EMSA; pH 5.5; EMSA: 40 mM Tris-acetate pH 5.5, 100 mM NaCl, 2.5 mM EDTA, 5% glycerol, RT 30 min, 2.5 uM RNA; MST: 25 mM MES pH 5.5, 100 mM NaCl, 0.05% Tween-20, 25 C, 5 nM labeled protein; details: protein: recombinant; C-terminal 6xHis; label: 5'-FAM; single strand
# SIDT1 ECD-Fc = biological target: T2, SIDT1 ECD-Fc; assay: EMSA; pH 5.5; legend says FAM-labeled RNA; EMSA: 40 mM Tris-acetate pH 5.5, 100 mM NaCl, 2.5 mM EDTA, 5% glycerol, RT 30 min, 2.5 uM RNA; MST: 25 mM MES pH 5.5, 100 mM NaCl, 0.05% Tween-20, 25 C, 5 nM labeled protein; details: protein: recombinant; tags: C-terminal Fc; chain copies: 2; label: 5'-FAM; single strand
binder,measurement,setting,value
B1,enzymatic_activity,[1],no change
same,stability_or_folding,[2],decreases
B2,expression_or_secretion,[3],decreases
B3,expression_or_secretion,[3],no change
B4,degradation_or_half_life,[4],increases
B5,expression_or_secretion,[3],decreases
B6,"stability_or_folding, Tm",[5],"decreases, decrease of 5.4 vs 55.1 (pH 7.5), 60.5 (pH 5.5), 61.1 (pH 3.5)"
B7,expression_or_secretion,[3],no change
B8,"stability_or_folding, Tm",[5],"decreases, decrease of 1.7 vs 55.1 (pH 7.5), 60.5 (pH 5.5), 61.1 (pH 3.5)"
B9,"stability_or_folding, Tm",[5],"decreases, decrease of 4.7 vs 55.1 (pH 7.5), 60.5 (pH 5.5), 61.1 (pH 3.5)"
B10,expression_or_secretion,[3],decreases
B11,expression_or_secretion,[3],decreases
UCGCUUGGUGCAGAUCGGGAC (ssRNA) [FAM-ssRNA 21 nt],binding result,SIDT1 ECD,binds
same,binding result,SIDT1 ECD-Fc,binds
